# Measurements published in article PMC5739299 (Molecular Biology of the Cell, 2017).
# T1: Alcadein α-FLAG, wild type, dephosphorylated with λPPase (human, UniProt O94985-2 29-971, dephosphorylated with λPPase on the beads)
# T1 sequence (looked up): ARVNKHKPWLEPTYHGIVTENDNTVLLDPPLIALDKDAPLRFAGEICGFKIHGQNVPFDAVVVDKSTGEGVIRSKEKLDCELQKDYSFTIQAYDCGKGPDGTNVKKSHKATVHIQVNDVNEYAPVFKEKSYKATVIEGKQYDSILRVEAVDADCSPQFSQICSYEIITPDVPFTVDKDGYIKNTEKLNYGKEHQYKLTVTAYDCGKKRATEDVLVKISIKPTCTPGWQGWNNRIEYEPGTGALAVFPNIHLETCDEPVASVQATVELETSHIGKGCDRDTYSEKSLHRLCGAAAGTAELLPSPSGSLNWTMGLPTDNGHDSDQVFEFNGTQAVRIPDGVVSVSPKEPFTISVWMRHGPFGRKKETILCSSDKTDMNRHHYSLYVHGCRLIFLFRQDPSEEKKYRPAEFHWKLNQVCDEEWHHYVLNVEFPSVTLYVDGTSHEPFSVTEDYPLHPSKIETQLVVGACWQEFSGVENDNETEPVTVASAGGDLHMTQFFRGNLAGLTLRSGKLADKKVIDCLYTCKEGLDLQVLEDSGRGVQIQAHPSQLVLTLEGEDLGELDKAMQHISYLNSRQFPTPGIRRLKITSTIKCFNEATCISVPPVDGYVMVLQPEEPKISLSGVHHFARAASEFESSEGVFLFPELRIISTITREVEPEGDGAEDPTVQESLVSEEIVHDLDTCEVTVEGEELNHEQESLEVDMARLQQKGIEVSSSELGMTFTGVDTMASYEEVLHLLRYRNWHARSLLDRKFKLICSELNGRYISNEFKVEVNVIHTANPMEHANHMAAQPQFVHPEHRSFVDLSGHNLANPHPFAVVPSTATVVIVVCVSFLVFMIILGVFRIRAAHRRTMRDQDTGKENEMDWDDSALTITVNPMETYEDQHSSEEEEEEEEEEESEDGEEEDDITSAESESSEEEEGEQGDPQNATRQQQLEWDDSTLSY
# B1: HA-KLC1 (kinesin light chain 1) (natural protein, UniProt O88447 1-541, looked up)
# chain: MYDNMSTMVYIKEEKLENVTQDEIISKTKQVIQGLEALKNEHNSILQSLLETLKCLKKDDESNLVEEKSSMIRKSLEMLELGLSEAQVMMALSNHLNAVESEKQNVRAQVRRLCQENQWLRDELANTQQKLQKSEQSVAQLEEEKKHLEFMNQLKKYDDDISPSEDKDSDSSKEPLDDLFPNDEDEPGQGIQHSDSSAAAARQGYEIPARLRTLHNLVIQYASQGRYEVAVPSCKQALEDLEKTSGHDHPDVATMLNILALVYRDQNKYKDAANLLNDALAIREKTLGRDHPAVAATLNNLAVLYGKRGKYKEAEPLCKRALEIREKVLGKDHPDVAKQLNNLALLCQNQGKYEEVEYYYQRALGIYQTKLGPDRTPNVAKTKNNLASCYLKQGKFKQAETLYKEILTRAHEAEFGSVDDENKPIWMHAEEREECKGKQKDGSAFGEYGGWYKACKVDSPTVTTTLKNLGALYRRQGKFEAAETLEEAAMRSRKQGLDNVHKQRVAEVLNDPESMEKRRSRESLNMDVVKYESGPDGGEEA
# Target: T1, Alcadein α-FLAG, wild type, …
# Experiment: pull-down
binder,measurement,value
B1,recovery of HA-KLC1 relative to Alcα-FLAG without λPPase treatment,~20%
